Data as given in patent US20070099268A1, “Chimeric HCN channels” (priority 2005, published 2007).
Several values for one entry are separate records, joined by “and”; a condition that tells them apart may be missing. Identical values can stand only once.

Columns and labels:
[1] = system: adult ventricular myocytes; assay: Voltage clamp (tail currents) of HCN2 expressed with AdHCN2 in adult ventricular myocytes; type: cell-based, rat
Description: Freshly isolated adult ventricular myocytes were prepared using the procedure described by Kuznetsov et al. (1995). This entailed a Langendorff perfusion of collagenase, followed by trimming away of the atria. The remaining tissue was minced and dissociated in additional collagenase solution. The isolated myocytes were suspended in a SFM then plated on 9×22 mm glass coverslips at 0.5-1×10^3 cells/mm^2. Two to three hours later, after the myocytes had adhered to the coverslips, the adenoviral infection procedure was begun (see below).
For increased expression efficiency, an adenoviral construct for mHCN2 was prepared. Gene delivery and transfer procedures followed previously published methods (Ng et al., 2000; He et al., 1998). A DNA fragment (between EcoRI and XbaI restriction sites) that included mHCN2 DNA downstream of the CMV promoter was obtained from plasmid pTR-mHCN2 (Santoro and Tibbs, 1999) and subcloned into the shuttle vector pDC516 (AdMax™; Microbix Biosystems, Toronto, Canada). The resulting pDC516-mHCN2 shuttle plasmid was co-transfected with a 35.5 kb El-deleted Ad genomic plasmid pBHGΔE1,3FLP (AdMax™) into El-complementing HEK293 cells.
AdHCN2 infection of rat ventricular myocytes was carried out 2-3 h after the isolated cells were plated onto coverslips. The culture medium was removed from the dishes (35-mm) and the inoculum of 0.2-0.3 ml/dish was added containing AdHCN2. The value of m.o.i. (multiplicity of infection—the ratio of viral units to cells) was 15-100. The inoculum was dispersed over the cells every 20 min by gently tilting the dishes so that the cells were evenly exposed to the viral particles. The dishes were kept at 37° C. in a CO2 incubator during the adsorption period of 2 h, then the inoculum was discarded and the dishes were washed and refilled with the appropriate culture medium. The dishes remained in the incubator for 24-48 h before electrophysiological experiments were conducted.
(§1) The whole-cell voltage clamp technique was employed to record native If or expressed IHCN2 or IHCN4. Action potentials were recorded in current clamp mode, again using a whole cell patch electrode. Experiments were carried out on cells superfused at 35° C. Extracellular solution contained (mM): NaCl, 140; NaOH, 2.3; MgCl2, 1; KCl, 5.4; CaCl2, 1.0; HEPES, 5; glucose, 10; pH 7.4. To record from myocytes expressing native currents (If), myocytes expressing HCN2 (IHCN2) or HCN4 (IHCN4), [K^+]0 was increased to 10 mM, and MnCl2 (2 mM) and BaCl2 (4 mM) added to the superfusate to eliminate calcium and inward rectifier (IK1) currents. In some experiments CsCl (4 mM) was used extracellularly to identify the pacemaker current as the Cs-sensitive current. […]
The activation relation of the native or expressed current can be determined from the steady-state I-V relation. […]

[2] = system: neonatal rat ventricular myocytes; assay: Voltage clamp of HCN2 or HCN4 plasmid (lipofectin) expressed in neonatal rat ventricular myocytes; type: cell-based
Excerpt: cDNAs encoding mouse HCN2 (mHCN2, GenBank AJ225122) or HCN4 (mHCN4, GenBank deposit in progress) were subcloned into the pCI mammalian expression vector (Promega, Madison, Wis.). The resulting plasmids (pCI-mHCN2 or pCI-mHCN4) were used for neonatal rat ventricular myocyte transfection, as indicated. A separate plasmid (pEGFP-CI; Clontech, Palo Alto, Calif.) expressing the gene of enhanced green fluorescent protein (EGFP) as a visual marker for successful DNA transfer was included in all transfection experiments. For transfection, 2 μg of pCI-mHCN and […] of pEGFP-CI were first incubated in 200 μl of SFM containing 10 μl of lipofectin (Gibco Life Technologies, Rockville, Md.) at room temperature for 45 min. The mixture was then added to a 35-mm petri dish containing […] suspended in 0.8 ml of SFM. After overnight incubation at 37° C. in a CO2 incubator, the medium containing the plasmids and lipofectin was discarded and the dish was refilled with 2 ml of fresh SFM.
as §1, with “current. The patch pipette solution included (mM): aspartic acid, 130; KOH, 146; NaCl, 10; CaCl2, 2; EGTA-KOH, 5; Mg-ATP, 2; HEPES-KOH, 10, pH 7.2. Where indicated, 10 μM cAMP was included in the pipette solution. A fast solution changing apparatus expedited the experimental protocols. The pipette resistance was typically 1-3 M. An Axopatch-200B amplifier and pClampS software (Axon Instruments) were used for acquisition and data analysis.” for “current.”
The activation relation of the native or expressed current can be determined from the steady-state I-V relation. In this case, the reversal potential (Vf) was separately determined from the fully activated I-V relation (Accili et al., 1991) and used to generate the activation relation (y=I/(gmax*(V−Vf)), where gmax is the maximal conductance). […] Tail currents were measured at a negative voltage (−125 mV) to avoid contamination by transient outward and other currents at less negative voltages. […]

B1: mHCN2: mouse HCN2 hyperpolarization-activated, cyclic nucleotide-gated channel, wild type (GenBank AJ225122) (protein)
chain: MDARGGGGRPGDSPGTTPAPGPPPPPPPPAPPQPQPPPAPPPNPTTPSHPESADEPGPRARLCSRDSACTPGAAKGGANGECGRGEPQCSPEGPARGPKVSFSCRGAASGPSAAEEAGSEEAGPAGEPRGSQASFLQRQFGALLQPGVNKFSLRMFGSQKAVEREQERVKSAGAWIIHPYSDFRFYWDFTMLLFMVGNLIIIPVGITFFKDETTAPWIVFNVVSDTFFLMDLVLNFRTGIVIEDNTEIILDPEKIKKKYLRTWFVVDFVSSIPVDYIFLIVEKGIDSEVYKTARALRIVRFTKILSLLRLLRLSRLIRYIHQWEEIFHMTYDLASAVMRICNLISMMLLLCHWDGCLQFLVPMLQDFPSDCWVSINNMVNHSWSELYSFALFKAMSHMLCIGYGRQAPESMTDIWLTMLSMIVGATCYAMFIGHATALIQSLDSSRRQYQEKYKQVEQYMSFHKLPADFRQKIHDYYEHRYQGKMFDEDSILGELNGPLREEIVNFNCRKLVASMPLFANADPNFVTAMLTKLKFEVFQPGDYIIREGTIGKKMYFIQHGVVSVLTKGNKEMKLSDGSYFGEICLLTRGRRTASVRADTYCRLYSLSVDNFNEVLEEYPMMRRAFETVAIDRLDRIGKKNSILLHKVQHDLSSGVFNNQENAIIQEIVKYDREMVQQAELGQRVGLFPPPPPPQVTSAIATLQQAVAMSFCPQVARPLVGPLALGSPRLVRRAPPGPLPPAASPGPPAASPPAAPSSPRAPRTSPYGVPGSPATRVGPALPARRLSRASRPLSASQPSLPHGVPAPSPAASARPASSSTPRLGPAPTARTAAPSPDRRDSASPGAASGLDPLDSARSRLSSNL
shift of voltage dependence by saturating cAMP, adult ([1]; 10 μM cAMP in the pipette): 14 mV | slope factor (K), adult myocytes ([1]; AdHCN2): 6.5±0.5 mV | negative shift of voltage dependence of activation/deactivation kinetics in the adult ([1]; adult vs neonatal): 21 mV | shift in the activation relation (midpoints), adult vs neonatal myocytes ([1]; negative in the adult): 18 mV | slope factor (K) ([2]; lipofectin transfection): 7.7±0.7 mV | difference in midpoint of activation of HCN2 relative to HCN4 ([2]; neonatal myocytes): 8.5 mV and 9 mV
